Assay results reported in patent US9567641B2, “Combination therapy for the treatment of cancer using an anti-C-met antibody” (SAMSUNG ELECTRONICS CO., LTD., priority 2013, dated 2017).

Tested on: MKN45 gastric cancer cell line
Assay: Synthetic lethal screening: siRNA plus anti-c-Met antibody, sensitization index (SI) by CellTiter Blue
Type: cell-based
Conditions: MKN45 cells, 5 days
Method: To search genes capable of increasing efficacy when suppressed together with an anti-c-Met antibody, synthetic lethal screening was conducted using MKN45 gastric cancer cell line (JCRB, JCRB0254). The synthetic lethal screening was conducted using a total of 1310 genes related to c-Met including 638 genes of EGFR library (Science Signaling, 3, ra67).
First, 0.3 ul of RNAiMax (Life Technologies) and a mixture of two different kinds of 20 nM siRNAs (Qiagen) were added to a 96-well plate, which was incubated at a room temperature for 15 min, wherein RNAiMax and siRNAs were diluted in Opti-MEM (Life Technologies) and a total mixture volume was adjusted to reach 22 ul or so. 78 ul of MKN45 cells diluted in a 5% FBS-containing RPMI1640 medium (GIBCO) were seeded onto each well of the 96-well plate so that each well contained 5000 cells. […]
After 5 days, 20 ul of a diluting solution of CellTiter Blue (Promega, G8081) and HBSS at 1:1 was added to each well, which was incubated at 37° C. for 4 hours. Then, the number of cells was counted via fluorescence signals (560/590 nm), which were measured using Envision 2104 Multi-label Reader (Perkin Elmer).
Since an increase degree in the efficacy of an anti-c-Met antibody to be caused by the expression suppression of each gene was measured as a reduction in cell viability, SI (sensitization index) was calculated. […]

B1: L3-1Y/IgG2: anti-c-Met antibody: huAbF46-H4-A1 heavy chain variable region, human IgG2 hinge and constant region, kappa light chain with H36Y (antibody)
heavy: EVQLVESGGGLVQPGGSLRLSCAASGFTFTDYYMSWVRQAPGKGLEWLGFIRNKANGYTTEYSASVKGRFTISRDNSKNTLYLQMNSLRAEDTAVYYCARDNWFAYWGQGTLVTVSSASTKGPSVFPLAPCSRSTSESTAALGCLVKDYFPEPVTVSWNSGALTSGVHTFPAVLQSSGLYSLSSVVTVPSSNFGTQTYTCNVDHKPSNTKVDKTVERKCCVECPPCPAPPVAGPSVFLFPPKPKDTLMISRTPEVTCVVVDVSHEDPEVQFNWYVDGVEVHNAKTKPREEQFNSTFRVVSVLTVVHQDWLNGKEYKCKVSNKGLPAPIEKTISKTKGQPREPQVYTLPPSREEMTKNQVSLTCLVKGFYPSDIAVEWESNGQPENNYKTTPPMLDSDGSFFLYSKLTVDKSRWQQGNVFSCSVMHEALHNHYTQKSLSLSPGK
light: DIQMTQSPSSLSASVGDRVTITCKSSQSLLASGNQNNYLAWYQQKPGKAPKMLIIWASTRVSGVPSRFSGSGSGTDFTLTISSLQPEDFATYYCQQSYSRPYTFGQGTKVEIKRTVAAPSVFIFPPSDEQLKSGTASVVCLLNNFYPREAKVQWKVDNALQSGNSQESVTEQDSKDSTYSLSSTLTLSKADYEKHKVYACEVTHQGLSSPVTKSFNRGEC
In the case of B1, the “final concentration that is approximately IC25~IC35” value is reported as ~0.0625 μl/ml.
